B1: PDZK1 (parent)
chain: FQAKKIPIVSSLADPLDTPPDSKE

Variants of: B1
Assay: protein stability index of a GFP-peptide fusion (GPS, HEK-293T) (PSI 1-6); higher = more stable
Conditions: c terminus: a fixed tail appended
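Further: lentivirally expressed fusions sorted by FACS into six bins by GFP to DsRed ratio, PSI derived from sequencing read proportions per bin multiplied by bin number.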

Q: Which protein stability index does the source give for FQAKKIPIVSSLADPLDDPPDSKE [T18D] here?
A: 3.68

Q: With FQAKKIPIVSSLADPLDWPPDSKE [T18W] as the variant, how does the protein stability index read?
A: 3.86

Q: Which protein stability index does the source give for FQAKKIPIVSSLADPLDGPPDSKE [T18G] here?
A: 3.62

Q: For FQAKKIPIVSSLADPLDNPPDSKE [T18N], which protein stability index is on record?
A: 3.48

Q: With FQAKKIPIVSSLADPLDAPPDSKE [T18A] as the variant, how does the protein stability index read?
A: 3.59

Q: With FQAKKIPIVSSLADPLDKPPDSKE [T18K] as the variant, how does the protein stability index read?
A: 3.81

Q: For FQAKKIPIVSSLADPLDSPPDSKE [T18S], which protein stability index is on record?
A: 3.53

Q: Which protein stability index does the source give for FQAKKIPIVSSLADPLDVPPDSKE [T18V] here?
A: 3.57

Q: Which protein stability index does the source give for FQAKKIPIVSSLADPLDEPPDSKE [T18E] here?
A: 3.75

Q: Which protein stability index does the source give for FQAKKIPIVSSLADPLDFPPDSKE [T18F] here?
A: 3.55

Q: With FQAKKIPIVSSLADPLDYPPDSKE [T18Y] as the variant, how does the protein stability index read?
A: 3.33

Q: With FQAKKIPIVSSLADPLDCPPDSKE [T18C] as the variant, how does the protein stability index read?
A: 3.46

Q: Which protein stability index does the source give for FQAKKIPIVSSLADPLDHPPDSKE [T18H] here?
A: 3.29

Q: Which protein stability index does the source give for FQAKKIPIVSSLADPLDMPPDSKE [T18M] here?
A: 3.73

Q: With FQAKKIPIVSSLADPLDRPPDSKE [T18R] as the variant, how does the protein stability index read?
A: 3.6

Q: For FQAKKIPIVSSLADPLDIPPDSKE [T18I], which protein stability index is on record?
A: 3.75

Q: Which protein stability index does the source give for FQAKKIPIVSSLADPLDTPPRSKE [D21R] here?
A: 2.76

Q: Which protein stability index does the source give for FQAKKIPIVSSLADPLDTPPGSKE [D21G] here?
A: 2.89

Q: With FQAKKIPIVSSLAQPLDTPPDSKE [D14Q] as the variant, how does the protein stability index read?
A: 3.86

Q: For FQAKKIPIVSSLAMPLDTPPDSKE [D14M], which protein stability index is on record?
A: 3.55

Q: Which protein stability index does the source give for FQAKKIPIVSSLARPLDTPPDSKE [D14R] here?
A: 3.81

Q: Which protein stability index does the source give for FQAKKIPIVSSLAVPLDTPPDSKE [D14V] here?
A: 4.1

Q: Which protein stability index does the source give for FQAKKIPIVSSLADPLDTRPDSKE [P19R] here?
A: 3.56

Q: Which protein stability index does the source give for FQAKKIPIVSSLADPLDTHPDSKE [P19H] here?
A: 4.01

Q: For FQAKKIPIVSSLADPLDTVPDSKE [P19V], which protein stability index is on record?
A: 3.54

Q: Which protein stability index does the source give for FQAKKIPIVSSLADPLDTKPDSKE [P19K] here?
A: 3.66

Q: With FQAKKIPIVSSLADPLDTDPDSKE [P19D] as the variant, how does the protein stability index read?
A: 3.87

Q: For FQAKKIPIVSSLADPLDTGPDSKE [P19G], which protein stability index is on record?
A: 3.91

Q: For FQAKKIPIVSSLADPLDTEPDSKE [P19E], which protein stability index is on record?
A: 3.35

Q: Which protein stability index does the source give for FQAKKIPIVSSLADPLDTYPDSKE [P19Y] here?
A: 3.81

Q: Which protein stability index does the source give for FQAKKIPIVSSLADPLDTSPDSKE [P19S] here?
A: 3.67

Q: For FQAKKIPIVSSLADPLDTAPDSKE [P19A], which protein stability index is on record?
A: 3.43

Q: With FQAKKIPIVSSLADPLDTCPDSKE [P19C] as the variant, how does the protein stability index read?
A: 3.53

Q: With FQAKKIPIVSSLADPLDTMPDSKE [P19M] as the variant, how does the protein stability index read?
A: 3.72

Q: Which protein stability index does the source give for FQAKKIPIVSSLADPLDTQPDSKE [P19Q] here?
A: 4.17

Q: For FQAKKIPIVSSLADPLDTIPDSKE [P19I], which protein stability index is on record?
A: 3.55

Q: With FQAKKIPIVSSLADPLDTWPDSKE [P19W] as the variant, how does the protein stability index read?
A: 3.19

Q: For FQAKKIPIVSSLADPLDTTPDSKE [P19T], which protein stability index is on record?
A: 3.85

Q: Which protein stability index does the source give for FQAKKIPIVSSLADPLDTLPDSKE [P19L] here?
A: 3.2

Q: For FQAKKIPIVSSLADPLDTFPDSKE [P19F], which protein stability index is on record?
A: 2.9

Q: For FQAKKIPIVSSLADPLDTNPDSKE [P19N], which protein stability index is on record?
A: 3.88

Q: With FQAKKIPIVSSLADPFDTPPDSKE [L16F] as the variant, how does the protein stability index read?
A: 2.89

Q: Which protein stability index does the source give for FQAKKIPIVSSLADPNDTPPDSKE [L16N] here?
A: 4.27

Q: Which protein stability index does the source give for FQAKKIPIVSSLADPWDTPPDSKE [L16W] here?
A: 2.99

Q: For FQAKKIPIVSSLADPVDTPPDSKE [L16V], which protein stability index is on record?
A: 3.91

Q: With FQAKKIPIVSSLADPYDTPPDSKE [L16Y] as the variant, how does the protein stability index read?
A: 3.47

Q: Which protein stability index does the source give for FQAKKIPIVSSLADPKDTPPDSKE [L16K] here?
A: 3.76

Q: For FQAKKIPIVSSLADPCDTPPDSKE [L16C], which protein stability index is on record?
A: 3.72

Q: For FQAKKIPIVSSLADPADTPPDSKE [L16A], which protein stability index is on record?
A: 3.85

Q: With FQAKKIPIVSSLADPEDTPPDSKE [L16E] as the variant, how does the protein stability index read?
A: 4.07

Q: For FQAKKIPIVSSLADPRDTPPDSKE [L16R], which protein stability index is on record?
A: 3.77

Q: For FQAKKIPIVSSLADPGDTPPDSKE [L16G], which protein stability index is on record?
A: 3.85

Q: For FQAKKIPIVSSLADPMDTPPDSKE [L16M], which protein stability index is on record?
A: 3.79

Q: Which protein stability index does the source give for FQAKKIPIVSSLADPSDTPPDSKE [L16S] here?
A: 4.13

Q: Which protein stability index does the source give for FQAKKIPIVSSLADPIDTPPDSKE [L16I] here?
A: 3.91

Q: For FQAKKIPIVSSLADPLATPPDSKE [D17A], which protein stability index is on record?
A: 3.75

Q: Which protein stability index does the source give for FQAKKIPIVSSLADPLLTPPDSKE [D17L] here?
A: 3.28

Q: Which protein stability index does the source give for FQAKKIPIVSSLADPLDTPMDSKE [P20M] here?
A: 3.75

Q: Which protein stability index does the source give for FQAKKIPIVSSLADPLDTPHDSKE [P20H] here?
A: 3.53

Q: Which protein stability index does the source give for FQAKKIPIVSSLADPLDTPQDSKE [P20Q] here?
A: 3.73

Q: With FQAKKIPIVSSLADPLDTPYDSKE [P20Y] as the variant, how does the protein stability index read?
A: 3.89

Q: Which protein stability index does the source give for FQAKKIPIVSSLADPLDTPVDSKE [P20V] here?
A: 3.74

Q: With FQAKKIPIVSSLADPLDTPNDSKE [P20N] as the variant, how does the protein stability index read?
A: 3.7

Q: Which protein stability index does the source give for FQAKKIPIVSSLADPLDTPSDSKE [P20S] here?
A: 3.62

Q: For FQAKKIPIVSSLADPLDTPTDSKE [P20T], which protein stability index is on record?
A: 3.58

Q: Which protein stability index does the source give for FQAKKIPIVSSLADPLDTPCDSKE [P20C] here?
A: 3.94

Q: For FQAKKIPIVSSLADPLDTPKDSKE [P20K], which protein stability index is on record?
A: 3.88

Q: With FQAKKIPIVSSLADPLDTPDDSKE [P20D] as the variant, how does the protein stability index read?
A: 4.28

Q: Which protein stability index does the source give for FQAKKIPIVSSLADPLDTPLDSKE [P20L] here?
A: 3.35

Q: For FQAKKIPIVSSLADPLDTPEDSKE [P20E], which protein stability index is on record?
A: 4.21

Q: For FQAKKIPIVSSLADPLDTPFDSKE [P20F], which protein stability index is on record?
A: 3.17

Q: For FQAKKIPIVSSLADPLDTPWDSKE [P20W], which protein stability index is on record?
A: 2.62

Q: For FQAKKIPIVSSLADPLDTPRDSKE [P20R], which protein stability index is on record?
A: 3.77

Q: For FQAKKIPIVSSLADPLDTPADSKE [P20A], which protein stability index is on record?
A: 4.05

Q: With FQAKKIPIVSSLADPLDTPIDSKE [P20I] as the variant, how does the protein stability index read?
A: 3.61

Q: With FQAKKIPIVSSLADPLDTPGDSKE [P20G] as the variant, how does the protein stability index read?
A: 4.28

Q: Which protein stability index does the source give for FQAKKIPIVSSLADPLDTPPDSGE [K23G] here?
A: 3.94

Q: With FQAKKIPIVSSLADPLDTPPDSVE [K23V] as the variant, how does the protein stability index read?
A: 3.33

Q: With FQAKKIPIVSSLADPLDTPPDSRE [K23R] as the variant, how does the protein stability index read?
A: 3.23

Q: Which protein stability index does the source give for FQAKKIPIVSSLADELDTPPDSKE [P15E] here?
A: 3.48

Q: Which protein stability index does the source give for FQAKKIPIVSSLADGLDTPPDSKE [P15G] here?
A: 4.12

Q: With FQAKKIPIVSSLADALDTPPDSKE [P15A] as the variant, how does the protein stability index read?
A: 3.61

Q: Which protein stability index does the source give for FQAKKIPIVSSLADSLDTPPDSKE [P15S] here?
A: 3.58

Q: Which protein stability index does the source give for FQAKKIPIVSSLADYLDTPPDSKE [P15Y] here?
A: 3.32

Q: For FQAKKIPIVSSLADDLDTPPDSKE [P15D], which protein stability index is on record?
A: 4.1

Q: With FQAKKIPIVSSLADRLDTPPDSKE [P15R] as the variant, how does the protein stability index read?
A: 3.73

Q: With FQAKKIPIVSSLADCLDTPPDSKE [P15C] as the variant, how does the protein stability index read?
A: 3.55

Q: For FQAKKIPIVSSLADNLDTPPDSKE [P15N], which protein stability index is on record?
A: 3.64

Q: For FQAKKIPIVSSLADWLDTPPDSKE [P15W], which protein stability index is on record?
A: 2.45

Q: Which protein stability index does the source give for FQAKKIPIVSSLADKLDTPPDSKE [P15K] here?
A: 3.25

Q: With FQAKKIPIVSSLADFLDTPPDSKE [P15F] as the variant, how does the protein stability index read?
A: 3.23

Q: Which protein stability index does the source give for FQAKKIPIVSSLADILDTPPDSKE [P15I] here?
A: 3.53

Q: With FQAKKIPIVSSLADVLDTPPDSKE [P15V] as the variant, how does the protein stability index read?
A: 3.43

Q: For FQAKKIPIVSSLADMLDTPPDSKE [P15M], which protein stability index is on record?
A: 3.11
